The text below walks through data of patent US20080227711A1 (LABORATOIRES SERONO, published 2008).

One may read the Kd as the concentration at which binding is half-saturated. In general, IC50 refers to the concentration that inhibits the measured activity by half. The low end stands for higher potency, the high end for lower potency. As a reminder, the koff is the rate constant with which the complex falls apart. Lower therefore signals slow dissociation. The term kon denotes a measure of how fast the partners come together. Higher therefore signals fast association.

For experiment [1], the target named is T1, CXCL8/IL-8 (UniProt P10145 28-99, limits assumed).
T1 construct: also called 125I-CXCL8/IL-8; 125I-IL-8
T1 sequence (looked up): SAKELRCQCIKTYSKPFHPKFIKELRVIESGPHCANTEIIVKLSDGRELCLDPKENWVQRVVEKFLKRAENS
Briefly: SPR (Biacore 3000), Evasin-3 from E. coli immobilized on CM4 chip, Kd=kd/ka. (In SPR one partner is held on a chip, and binding of the other changes the refractive index at the surface.)

The target of experiment [2] is T2, CXCL1/Gro-alpha (UniProt P09341 35-107).
T2 construct: also called Gro-α; 125I-CXCL1/Gro-alpha
T2 sequence: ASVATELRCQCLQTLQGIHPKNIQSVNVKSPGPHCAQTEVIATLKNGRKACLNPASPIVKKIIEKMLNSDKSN
Described as above.

The target of experiment [3] is T3, murine CXCL1/KC (murine, UniProt P12850 25-96).
T3 sequence: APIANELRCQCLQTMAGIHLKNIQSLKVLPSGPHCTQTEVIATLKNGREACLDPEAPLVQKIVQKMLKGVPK
Described as above.

Experiment [4] deals with T4, murine CXCL2/MIP-2 (murine, UniProt P10889 28-100).
T4 sequence: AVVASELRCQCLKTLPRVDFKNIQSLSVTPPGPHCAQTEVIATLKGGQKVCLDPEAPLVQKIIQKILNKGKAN
The experiment is described as above.

Experiment [5] has as its target T5, CCL11/eotaxin (UniProt P51671 24-97).
T5 construct: also called 125I-eotaxin
Briefly: SPR (Biacore 3000), Evasin-3 from E. coli immobilized on CM4 chip, chemokine injected.

Experiment [6] has as its target T6, CCL3/MIP-1-alpha (UniProt P10147 24-92).
T6 construct: also called MIP-1α
T6 sequence: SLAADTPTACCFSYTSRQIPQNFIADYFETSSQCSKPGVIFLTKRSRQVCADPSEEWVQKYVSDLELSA
The experiment is described as above.

The target of experiment [7] is T7, CCL4/MIP-1-beta (UniProt P13236 24-92).
T7 construct: also called MIP-1β
T7 sequence: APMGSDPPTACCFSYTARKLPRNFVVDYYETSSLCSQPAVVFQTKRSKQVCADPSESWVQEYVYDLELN
The experiment is described as above.

Experiment [8] has as its target T8, CCL18/PARC (UniProt P55774 21-89).
T8 sequence: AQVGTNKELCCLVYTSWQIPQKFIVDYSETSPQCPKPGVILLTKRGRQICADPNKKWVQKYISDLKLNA
Described as above.

For experiment [9], the target named is T9, CCL2/MCP-1 (UniProt P13500 24-99).
T9 construct: also called 125I-MCP-1
Described as above.

Experiment [10] addresses T10, CXCL12/SDF-1-alpha (UniProt P48061 22-89).
T10 construct: also called SDF-1α
Described as above.

Experiment [11] deals with T11, CCL5/RANTES (UniProt P13501 24-91).
T11 construct: also called 125I-CCL5/RANTES
T11 sequence: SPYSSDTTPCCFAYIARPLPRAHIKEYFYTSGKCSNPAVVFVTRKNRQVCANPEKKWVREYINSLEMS
The description is as above.

Experiment [12] has as its target T12, CX3CL1/Fractalkine (UniProt P78423 25-100).
T12 sequence: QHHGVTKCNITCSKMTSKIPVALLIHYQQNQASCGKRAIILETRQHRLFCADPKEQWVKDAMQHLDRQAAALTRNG
The description is as above.

The target in experiment [13] is T1, CXCL8/IL-8. Description: equilibrium competition receptor binding assay: inhibition of 0.1 nM 125I-IL-8 binding to CHO/CXCR1 cells.
Experiment [14] deals with T1, CXCL8/IL-8. Briefly: SPR (Biacore 3000), Evasin-3 from E. coli immobilized on CM4 chip, chemokine injected, Langmuir global fit.
Experiment [15] has as its target T2, CXCL1/Gro-alpha. The experiment is described as above.
The target of experiment [16] is T3, murine CXCL1/KC. The experiment is described as above.
The target of experiment [17] is T4, murine CXCL2/MIP-2. The experiment is described as above.

T5 sequence (P51671 24-97 limits assumed): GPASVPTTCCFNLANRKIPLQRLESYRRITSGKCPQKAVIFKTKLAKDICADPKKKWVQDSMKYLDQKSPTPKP
T9 sequence (P13500 24-99 limits assumed): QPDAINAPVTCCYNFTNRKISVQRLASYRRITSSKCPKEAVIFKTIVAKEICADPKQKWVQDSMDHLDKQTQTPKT
T10 sequence (P48061 22-89 limits assumed): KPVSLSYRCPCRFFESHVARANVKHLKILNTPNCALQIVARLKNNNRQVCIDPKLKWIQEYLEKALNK

B1: recombinant Evasin-3 produced in E. coli (Met-Evasin-3) (other)
chain: MLVSTIESRTSGDGADNFDVVSCNKNCTSGQNECPEGCFCGLLGQNKKGHCYKIIGNLSGEPPVVRR
notes: No tag, not glycosylated; also called mature Met-Evasin-3
For B1, the Kd in experiment [1] was determined as 0.53 nM; in [2] it was 1.21 nM; in [3], 4.56 nM; in experiment [4], 0.84 nM. The binding result in [5], in experiment [6], in experiment [7], in experiment [8], in [9] and in experiment [10] was “no binding (tested: 0.5 µg/ml chemokine)” each time. Besides, the binding result in [11] and in experiment [12] was “no binding (tested: 0.5 µg/ml chemokine)” in each case. Moreover, the IC50 in [13] was 20 nM. The koff came out at 0.00032 s⁻¹ in experiment [14], 0.00269 s⁻¹ in [15], 0.00235 s⁻¹ in experiment [16] and 0.000878 s⁻¹ in [17]. Also, the kon in [14] was determined as 603000 M⁻¹ s⁻¹; in experiment [15] it was 2.23e+06 M⁻¹ s⁻¹; in experiment [16] it was 514000 M⁻¹ s⁻¹; in [17], 1.05e+06 M⁻¹ s⁻¹.
